The test system of this series is T1, dFrCas9 (Faecalibaculum rodentium).
T1 sequence: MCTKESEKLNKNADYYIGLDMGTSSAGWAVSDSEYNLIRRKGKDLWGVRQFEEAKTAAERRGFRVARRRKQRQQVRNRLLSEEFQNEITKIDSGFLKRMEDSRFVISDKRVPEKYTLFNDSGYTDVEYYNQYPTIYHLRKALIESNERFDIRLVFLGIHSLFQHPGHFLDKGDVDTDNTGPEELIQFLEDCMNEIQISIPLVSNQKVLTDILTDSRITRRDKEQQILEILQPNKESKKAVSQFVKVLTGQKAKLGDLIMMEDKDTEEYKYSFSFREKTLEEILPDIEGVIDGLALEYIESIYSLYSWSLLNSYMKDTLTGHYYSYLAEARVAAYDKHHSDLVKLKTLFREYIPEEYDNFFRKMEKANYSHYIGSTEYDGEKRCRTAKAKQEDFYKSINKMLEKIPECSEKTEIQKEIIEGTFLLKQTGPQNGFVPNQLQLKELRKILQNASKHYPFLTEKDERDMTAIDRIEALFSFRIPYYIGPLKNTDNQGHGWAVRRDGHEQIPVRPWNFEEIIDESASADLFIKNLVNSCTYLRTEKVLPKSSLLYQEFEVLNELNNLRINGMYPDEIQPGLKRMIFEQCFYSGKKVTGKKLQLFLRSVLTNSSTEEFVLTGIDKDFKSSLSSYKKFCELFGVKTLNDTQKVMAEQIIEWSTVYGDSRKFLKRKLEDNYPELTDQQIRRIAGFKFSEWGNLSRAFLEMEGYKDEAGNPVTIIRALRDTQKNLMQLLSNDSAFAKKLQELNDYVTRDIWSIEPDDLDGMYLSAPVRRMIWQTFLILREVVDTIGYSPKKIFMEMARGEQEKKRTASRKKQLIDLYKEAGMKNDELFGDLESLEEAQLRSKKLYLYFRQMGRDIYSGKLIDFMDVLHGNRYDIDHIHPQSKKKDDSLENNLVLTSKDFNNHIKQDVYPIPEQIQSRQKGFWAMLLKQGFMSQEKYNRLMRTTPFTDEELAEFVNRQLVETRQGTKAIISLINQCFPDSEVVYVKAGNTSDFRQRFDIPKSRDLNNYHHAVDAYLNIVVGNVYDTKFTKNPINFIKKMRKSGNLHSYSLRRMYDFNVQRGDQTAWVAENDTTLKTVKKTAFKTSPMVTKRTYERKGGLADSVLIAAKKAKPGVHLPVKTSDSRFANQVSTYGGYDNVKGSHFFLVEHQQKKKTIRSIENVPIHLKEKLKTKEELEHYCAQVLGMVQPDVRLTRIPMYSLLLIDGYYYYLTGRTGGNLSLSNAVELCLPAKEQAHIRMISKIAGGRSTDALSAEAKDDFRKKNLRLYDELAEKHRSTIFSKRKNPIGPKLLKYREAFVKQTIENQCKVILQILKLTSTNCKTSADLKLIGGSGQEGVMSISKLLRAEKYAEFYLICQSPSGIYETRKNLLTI
As to the kind of experiment: cell_activity. The settings on record: CRISPRi by binding TATA-box; PAM NNTA.

In turn, ABCA1 TATA-box sgRNA ; ABCA1 TATA-box yielded an activity (% decrease of expression) of 61.7.
